The source of these data is US20190040143A1.

This test concerns the target human HER3 on human cancer cell lines (human) (UniProt P21860). Kind of test: cell-based or functional assay.

Take “U1-59 anti-HER3 monoclonal antibody (International Patent Publication WO 2007077028)”: the maximal extent of pHER3 suppression, Kato III cells was found to be 60% and the potency in pHER3 ELISA, HCC827 cells, against 2C2 (fold less potent) is 10.
